Source: patent US20040253689A1 (published 2004)

Key:
[1] = biological target: T1, ^125I-IGF-I (human, UniProt P05019 49-118, radioiodinated (^125I, 2000 Ci/mmol); labelled residue not stated); experiment: solution binding of ^125I-IGF-I, charcoal separation; reference wild-type CHO-hIGFBP-3
T1 construct: also called insulin growth factor-I
Experimental: (§1) Binding of ¹²⁵I-IGF-I and ¹²⁵I-IGF-II in solution —¹²⁵I-IGF-I or ¹²⁵I-IGF-II (˜25,000 cpm) was incubated overnight at 4° C. with different concentrations of recombinant hIGFBP-3 standard (R&D Systems), or purified wild-type or mutant CHO-hIGFBP-3 in 0.4 ml phosphate-buffered saline supplemented with 0.2% fatty acid-free bovine serum albumin. Following the addition of 0.5 ml of a 5% suspension of activated charcoal (Sigma) to adsorb unbound IGF tracer, the samples were centrifuged. Radioactivity bound to hIGFBP-3 remained in the charcoal supernate and was quantified in a gamma counter (Yang et al. (1993), supra). DNA synthesis—DNA synthesis was measured in CCL64 cells by the incorporation of the thymidine analog BrdU into newly synthesized as previously described (Wu et al. (2000), supra). Quiescent cells in serum-free medium were stimulated to synthesize DNA by adding EGF. EGF was used to stimulate proliferation instead of serum to avoid introducing IGFs. In brief, the cells were plated in 96-well microtiter plates (30,000 cells/well) in 0.2 ml of DMEM containing 10% fetal calf serum, and incubated for 3 h at 37° C. […] BrdU (10 μM) was added for 2-3 h, the cells were fixed, and BrdU incorporation was quantified by an immunocolorimetric assay using monoclonal antibody to BrdU conjugated to peroxidase. […] The absorbance at 450 nm was measured in a scanning multiwell spectrophotometer.

[2] = biological target: T2, ^125I-IGF-II (human, UniProt P01344 25-91, radioiodinated (^125I, 2000 Ci/mmol); labelled residue not stated); experiment: solution binding of ^125I-IGF-II, charcoal separation; reference wild-type CHO-hIGFBP-3
T2 construct: also called insulin growth factor-II
Experimental: as §1

T2 sequence (P01344 25-91 limits assumed): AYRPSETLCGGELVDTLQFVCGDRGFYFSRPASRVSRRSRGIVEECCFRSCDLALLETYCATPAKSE
T1 sequence (P05019 49-118 limits assumed): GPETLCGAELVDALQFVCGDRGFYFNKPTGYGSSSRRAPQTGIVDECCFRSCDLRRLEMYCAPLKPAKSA

Row | fold lower concentration of wild-type CHO-hIGFBP-3 that still bound more than the mutant at 200 ng/ml [1] [fold] | fold lower concentration of wild-type CHO-hIGFBP-3 that still bound more than the mutant at 200 ng/ml [2] [fold] | Binder
1 | > 80 | > 80 | 4m-hIGFBP-3 (R75A, L77A, L80A, L81A mutant CHO-hIGFBP-3) (other, human, mature; Same tagged construct as the wild-type CHO-hIGFBP-3, with four alanine substitutions; also called quadruple mutant) HHHHHHGMASMTGGQQMGRDLYDDDDKGASSAGLGPVVRCEPCDARALAQCAPPPAVCAELVREPGCGCCLTCALSEGQPCGIYTERCGSGLRCQPSPDEAAPAQAAADGRGLCVNASAVSRLRAYLLPAPPAPGNASESEEDRSAGSVESPSVSSTHRVSDPKFHPLHSKIIIIKKGHAKDSQRYKVDYESQSTDTQNFSSESKRETEYGPCRREMEDTLNHLKFLNVLSPRGVHIPNCDKKGFYKKKQCRPSKGRKRGFCWCVDKYGQPLPGYTTKGKEDVHCYSMQSK
2 | 80 | > 80 | 6m-hIGFBP-3 (I56A, Y57A, R75A, L77A, L80A, L81A mutant CHO-hIGFBP-3) (other, human, mature; Same tagged construct as the wild-type CHO-hIGFBP-3, with six alanine substitutions; Positions count on mature hIGFBP-3, not on the precursor; also called 6m-CHO-hIGFBP-3) HHHHHHGMASMTGGQQMGRDLYDDDDKGASSAGLGPVVRCEPCDARALAQCAPPPAVCAELVREPGCGCCLTCALSEGQPCGAATERCGSGLRCQPSPDEAAPAQAAADGRGLCVNASAVSRLRAYLLPAPPAPGNASESEEDRSAGSVESPSVSSTHRVSDPKFHPLHSKIIIIKKGHAKDSQRYKVDYESQSTDTQNFSSESKRETEYGPCRREMEDTLNHLKFLNVLSPRGVHIPNCDKKGFYKKKQCRPSKGRKRGFCWCVDKYGQPLPGYTTKGKEDVHCYSMQSK
